# Reference: the nanobody polyreactivity screen of Harvey et al. (2022)
# Assay: yeast display, Sf9 membrane polyspecificity reagent, FACS + sequencing; frameworks hold sequencing errors
# In short: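 Galactose-induced (36–48 hours) yeast carrying a synthetic nanobody display library were exposed to 10% biotinylated, detergent-solubilized Sf9 membrane reagent at 4 °C for 1 hour. FACS followed streptavidin microbead enrichment, using low and high (top ~1%) gates for expression (anti-HA) and reagent binding (streptavidin). Colony PCR, MiSeq 2 × 250 sequencing and CDR-length filtering followed. Labels for polyreactivity reflect the gate of origin.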
sequence,measurement,value
QVQLEESGVGLVQAGGSLRLSCAASGFIFSFYAMGWSRQAPGKERELVAVISKSGGSTYYADSVKGRFTISRDNAKNTVYLQMNSLKPEDTAVYFCAADSTVGRLLSFDYWGQGTQVTVSS,polyreactivity (PSR sort gate),low polyreactivity
QVQLVESGGGLVQAGGSLRLSCAASGSTFKKNAMGWYRQAPGKERELVAAISKRGGRTYYADSVKGRFTISRDNAKNTVYLQMNSLKPEDTAVYYCNAGQQHFDEEEYDYWGQGTQVTVSS,polyreactivity (PSR sort gate),high polyreactivity
QVQLVESGGGLVQAGGSLRLSCAASGSIFGLNAMGWYRQAPGKERELVAASSVSGTRTYYADSVKGRFTISRDNAKNTGYVQMNSLKPEDTAVYYCATRRYIFYSPYRYGYWGQGTHVTVSS,polyreactivity (PSR sort gate),high polyreactivity
QVQLVESGGGLVQAGGSLRLSCAASGFIFTNVMGWYRQAPGKERELVAAISGRGTSTYYADSVKGRFTISRDNAKNTVYLQMNSLKPEDTAVYYCAAYFTSRLDYWGQGTQVTVSS,polyreactivity (PSR sort gate),high polyreactivity
QVQLVESGGGLVQAGGSLRLSCAASGRTFQVYAMGWYTQAPGKERELVADITGRGGITYYADSVKGRFTISRDNAKNTVYLQMNSLKPEDTAVYYCAAERYNYKTIYRYDYWGQGTQVTVSS,polyreactivity (PSR sort gate),high polyreactivity
QVQLVESRGGLVQAGGSLRLSCAASGSTFSANTMGWNRQAPGKERELVAGITNTGDTYYADSVKGRFTLSRDNAKNTVYLQMNSLKPEDTAVYYCAADSWRLTDGAYWSTVYYWGQGNQVTVSS,polyreactivity (PSR sort gate),low polyreactivity
QVQLVESGGGLVQAGGSLRLSSAASGLTFPIYAMVWYTQAPGKEREFVAVITTSGGSTYYADSVKGRFTISRDNAKNTVFLQMNSLKPEDTSVYYCNARRIRHYYWGQGTQVTVSS,polyreactivity (PSR sort gate),high polyreactivity
QVQLVESGGGLVQAGGSLRLSCAASGGTFWIYAMGWYRQAPGKERELVAGITTSGATTYYADSVKGRFTISRDNAKNTVYLQMNSLKPEDTAVYYCAAVIRPRYYQVRPRYDYWGQGTQVTVSS,polyreactivity (PSR sort gate),low polyreactivity
QVQLVESGGGLVQAGGSLRLSCAASGRIFPRNTMGWYRQAPGKERELVAAISQSGGRTYYADSVKGRFTISRDYAKNTVYLQMNSLKPEDTAVYYCAAREYRYDMYYWGQGTQVTVSS,polyreactivity (PSR sort gate),high polyreactivity
QVQLVESGGGLVQAGGSLRLSCAASGRTFDYYTMGWYRQAPGKERELVAAISRSSGRTYYADSVKGRFTISRDNAKNTVYLQMNSLKPEDTAVYYCAARYYLSVRYGYWGQGTQVTVSS,polyreactivity (PSR sort gate),high polyreactivity
QVQLVESGGGLVQAGGSLRLSCAASGRTFFSFNAMVWYRQPPGKERELVAAIDGDGGITYYADSVKGRFTISRDNAKNTVYLQMNSLKPEDTAVYYCAAETLYSSAGEDDYWGQGTQVTVSS,polyreactivity (PSR sort gate),low polyreactivity
QDQHVESGGGLVQAGGSLRLSCAASGLTFTLYAMGWYRKAPGKERELVAAITRSGGSTSYADSVKGRFTISRDYAKNTVYLQMNSLKPEDTAVYYCNADSPGYTAVRLVEFDYWGQGTQVTVSS,polyreactivity (PSR sort gate),low polyreactivity
QVQLVESGGGLVQAGGSLRISCAASGRTFYGNAMGWYRQAPGKEREFFAAISASGGSTYYADSVKGRFTISRDNAKNTVYLQLNSLKPEDTSVYYCATDLGAFSVPYSPYDYWGLGTQVTVSS,polyreactivity (PSR sort gate),low polyreactivity
QVQLVESGGGLVQAGGSLRLSCAASGFTFRWYAMGWYRQAPGKERELVADITRHGGSTYYADSVKGRFTISRDNAKNTVYLQMNSLKPEDTAVYYCAKQNETPWQAYYFDWPEFDYWGQGTQVTVSS,polyreactivity (PSR sort gate),low polyreactivity
QLQLVESGGGLVQAGGSLSLSCAASGSTFDYYDMGWYRQAPGKERELFSYISWSGGSTRYADSVKGRYTISRDNAKNTVYLQMNSLKPEESAVYYCNKSNPDYDRLAIHAFDYWGQGTQLTVSS,polyreactivity (PSR sort gate),low polyreactivity
QVQLVESGGGLVQAGGSLRLSCAASGIIFVYNTMGWYRQAPGKERELVAAISYSGGGTYYADSVKGRFTISRDNAKNTVYLQMNSLKPEDTAVYYCAAETYYAPYDYWGQGTQVTVSS,polyreactivity (PSR sort gate),high polyreactivity
QVQLVESGGGLVEAGGSLRLSCDASGRIFYSNAMGWSRQAPGKERELVATITRSSGITYYADSVKGRFTISRDNAKNTVYLQMNSLKPEDTAVYYCAAPWYYYGYWGQGTQVTVSS,polyreactivity (PSR sort gate),high polyreactivity
QVQLVESGGGLVQAGGSLRLSCAASGSTFLIKAMGWYRQAPGKEREVVASIRYRGATTYADSVKGRFTISRDNAKNTVYLQLKSLKPEDTAVYYCAAVHWRYQYSLRYDYWGQGTQVTVSW,polyreactivity (PSR sort gate),high polyreactivity
QVQLVESGGGLVQAGGSLRLSCAASGSTFLFYTMGWYRQAPGKERELVAAINSGGSTNYADSVKGRFTISRDNAKNTVYLQMNSLKPEDTAVYYCNADRTYVYKYTYSFYYWGQGTQVTVSS,polyreactivity (PSR sort gate),low polyreactivity
QVQRVESGGGLVQAGGSLLLSCAASGRTIRHNAMGWYRPAPGKERELVAAISRSGGSTYYADSVKGRFTISRDKAKNTVYLLMNSLKPEDTAVYYCAAGYHGYDWGQGTQVTVSS,polyreactivity (PSR sort gate),high polyreactivity
QVQLVESGGGLVQAGGSLRLSCAASGSIFARYAMGWYRQAPGKERELVAAINSTVSTNYADSVKGRFTISRDNAKNTVYLQMNSLKPEDTAVYYCAVDIVRGGRDSWGQGTLVTVSS,polyreactivity (PSR sort gate),low polyreactivity
QVQLVESGGGLVQAGGSLRLICAASGSTFPGYAMGWYRQAPGKERELVATITRRGGSTYYADSVKGRFTISRDNAKNTVYLQMNSLKPEDTAVYYCNAVDYTVWLFPYDTGVDYWGQGTQVTVSS,polyreactivity (PSR sort gate),low polyreactivity
QVQLVESGGGLVQAGGSLRLSCAASGSTLWWYDMGWYRQAPGKERELVAAINSGGSTNYADSVKGRFTISRDNAKNTVYLQMNSLKPEDTAVYYCNTDGEVTYDYWGQGTQVTVSS,polyreactivity (PSR sort gate),low polyreactivity
QVQLVESGGGLVQAGGSLRLCCAASGRIFAGNAMGWYRQAPGKEREFVAGISKGGGRTYYADSVKGRCTISRDNAKKTVYLQMNSLKPEDTAVYYCAALPPRASSDAGGWYVAEDYWGQGTQVTVSS,polyreactivity (PSR sort gate),high polyreactivity
QVQLVESGGGLVQAGGSLRLSCAASGSTFFGYAMGWYRQAPGKERELVAAIRYNGGRTYYADSVKGRFTISRDNAKNTVYLQMNSLKPEDTAVYYCAAYISYSRTYYYWGQGTQVTVSS,polyreactivity (PSR sort gate),low polyreactivity
QVQLVESGGGLVQAGGSLRLSCAASGIIFYLYAMGWYRQAPGKERELVAAISWRGGSTYYADSVKGRFTISRDNAKNTVYLQMNSLKPEDTAVYYCNKTQPIDLYGYWGQGTQVTVSS,polyreactivity (PSR sort gate),high polyreactivity
QVQLVESGGGLVQAGGSLRLSCAASGSTFSPNARGWYRQAPGKERELVAAITYRGANTYYADSVKGRFTISRDNAKNTVYLQMNSLKPEDTAVYYCAAENWIGAYYWGQGTQVTVSS,polyreactivity (PSR sort gate),low polyreactivity
QVQLVESGGGIVQAGGSLRLSCAASGSILGYYVMGWYRQAPGIESELVAAISWSSGSTYYADSVKGRFTISRDNAKNTVYLQMNSLIPEDTAVYFCAAPIGDVYVGKGYDSWGQGTQVTVSS,polyreactivity (PSR sort gate),low polyreactivity
QVQLVESGGGLVQAGGSLRLSCAASGGTFRSNAMGWYRQAPGKERELVAASTNYADSVKGRFTISRDNAKTTVYLQMNSLKPEDTAVYFCAARLASWPLTYDFQWYEYWGQGTQVTLSS,polyreactivity (PSR sort gate),low polyreactivity
QVQLVESGGGLVQAGGSLRLSCAAYGIIFRLKARGSNRQSPGKERELVAAITRRGGTTYYADSVKGRFTISRDNAKYTVYLQMNSLKPEDTAVFFCNTYYYWQYDWGQGTQVSVSS,polyreactivity (PSR sort gate),high polyreactivity
QVQLVESGGGLVQAGGRLRLSCAASGFYLNAMGWYRQAPGKDRELVATITSSATNTYYADSVKGRFTISRDNAKNTVYLQMNSLKPEDTAVYYCNARYTSHTLADGVYLYDYWGQGTQVTVSS,polyreactivity (PSR sort gate),low polyreactivity
QVQLVESGGGLVQAGGSLRLSCAASGRISFNAMGWYRQAPGKERELVAAITSSGGRTYYADSVKGRFTISRDNAKNTVYLQMNSLKPEDTAVYYCATGSPGGSPGWGRTTGRLGYWGQGTQVTVSS,polyreactivity (PSR sort gate),high polyreactivity
QVQLVESGGGLVQAGGSLRLSCAASGRIYDYYAMGWYRQAPGKERELVAAISTSGGSTYYADSVKGRFTISRDHAKNTVYLQMKSLKPEDTAVYYCAKDITVTYPGLDYDYWGQVTQVTVSS,polyreactivity (PSR sort gate),low polyreactivity
QVQLVESGGGLVQAGGSLRLSCAASGSIFKIYAMGWYRQAPGKERELVAAITINGGSTYYADSVKGRFTISRDNAKNTVYLQMNSLKPEDTAVYYCAASADWWYEYWGQGTQVNVSS,polyreactivity (PSR sort gate),low polyreactivity
QVQLVESGGGLVQAGGSLRLSCAASGRIFSYYAMGWSRQAPGNERELVAAITWSGGRTYYADSVKGRFTISRDNAKNTVYLQMNSLNPEDTAVYYCAADYYYGSLWDNKLGYWGQGTQVTVSS,polyreactivity (PSR sort gate),high polyreactivity
QVQLVESGGGLVQAGGSLRLSCAASGFTFIRNAMGWYRQAPGKDRELVAAISRSGGSTYYADSVKGRFTISRDNAKYTVYLQMNSLKPEDTAVYYCPVTLYLKWQGGAYDYWGQGTQVTVSS,polyreactivity (PSR sort gate),low polyreactivity
QVQLVESGGGVVQAGGSLRLSCAASGSTFRYNARGWYRQAPGKEREFVAAITTSGVRTYYADSVKGRFTISRDNAKNTVYLQMNSLKPEDTAVYYCARRTPGTRWNYDYWGQGTQVTVSS,polyreactivity (PSR sort gate),high polyreactivity
QVQLVESGGGLVQAGGSLRLSCASSGRIFDQYAMGWYRQAPGKERELVAAISSDDGSTYYADSVKGRFTISRDNAKNTVYLQMNSLKPEDTAVYYCAADAWRYVDYDYWGQGTQVTVSS,polyreactivity (PSR sort gate),low polyreactivity
QVQLVESGGGLVQAGGSLRLSCAASGITFSVYAMGWYRQAPGKEWELVASISSGGTSTYYADSVKGRFTISRDNAKNTVYLQMNSLKPEDTAVYYCAAYSYYTGDQYSYDYWGQGTQVTVSS,polyreactivity (PSR sort gate),low polyreactivity
QVQLVESGGGLVQAGGSLRLSCAASGSTFDGYAMGWYRQAPGKERELVAAISSSGAYTYYADSVKGRFTISRDIAKNTVFLQMNSLKPEDTAVYYCNRVTYQQKNDYCGQGTQVTVSS,polyreactivity (PSR sort gate),high polyreactivity
QVQLVESGGGLVQAGGSLRLSCAASGFTFWTYAMGWYRQAPGKERELVAAISRSAGRTYYADSVKGRFTISRDNAKNTVYLQMNSLKPEDTAVYYCNARAGYVRYGYWGQGTQVTVSS,polyreactivity (PSR sort gate),high polyreactivity
QVQLVESGGGLVQAGGSLRLSCAASGFTFYTYAMGWYRPAPGKERELVATITIGDGSTYYADSVKGRFTISRDNAKNTVYLQMNSLKPEDTAVYYCNRDSVGYDYWGQGSQVTVSS,polyreactivity (PSR sort gate),low polyreactivity
QVQLEESGGRLVQAGGSLRLICAASGRIFRFYTMGWYIQAPGKERELVAAITSSGRTYYADSVKGRFTISRDNAKNTVYLQMKSLKPEDTAVYYCNKYFRPRTILPSPGEYLGQGTQVTVSS,polyreactivity (PSR sort gate),high polyreactivity
